A word on the EC50: it is the concentration giving half of the maximal effect. Broadly, the Kd is the equilibrium constant for the complex coming apart. High values mean lower affinity, low ones higher affinity. By EC50 (read off the curve) is commonly meant the concentration giving half of the maximal effect.

From patent US20250368742A1 (D2M BIOTHERAPEUTICS, published 2025) come the findings set out here.

For assay [1], the target named is T1, human MICA002 on cells (human).
T1 chain: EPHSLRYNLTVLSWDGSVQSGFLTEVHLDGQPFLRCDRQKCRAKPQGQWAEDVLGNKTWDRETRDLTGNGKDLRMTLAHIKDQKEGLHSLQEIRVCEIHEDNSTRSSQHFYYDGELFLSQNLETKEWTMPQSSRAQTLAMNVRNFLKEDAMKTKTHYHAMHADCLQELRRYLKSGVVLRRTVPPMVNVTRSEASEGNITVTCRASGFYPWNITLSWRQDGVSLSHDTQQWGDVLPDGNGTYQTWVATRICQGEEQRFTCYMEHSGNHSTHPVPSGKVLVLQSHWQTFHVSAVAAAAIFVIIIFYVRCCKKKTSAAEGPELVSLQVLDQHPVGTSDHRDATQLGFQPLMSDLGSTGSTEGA
The assay is described as follows: flow cytometry, CHO-MICA002 cells. In general terms: In flow cytometry, cells or beads pass a laser one at a time.

Assay [2] has as its target T2, human MICA004 on cells (human).
T2 construct: whole, on cells; also called CHO-MICA004; C1R-MICA004
The assay is described as follows: flow cytometry, CHO-MICA004 cells.

Assay [3] concerns the target T3, MICB005-ECD-HISAvi (human, UniProt Q29980 24-309).
T3 construct: Two sources under one name in the two kinetic assays; also called MICB005 polypeptide
T3 sequence: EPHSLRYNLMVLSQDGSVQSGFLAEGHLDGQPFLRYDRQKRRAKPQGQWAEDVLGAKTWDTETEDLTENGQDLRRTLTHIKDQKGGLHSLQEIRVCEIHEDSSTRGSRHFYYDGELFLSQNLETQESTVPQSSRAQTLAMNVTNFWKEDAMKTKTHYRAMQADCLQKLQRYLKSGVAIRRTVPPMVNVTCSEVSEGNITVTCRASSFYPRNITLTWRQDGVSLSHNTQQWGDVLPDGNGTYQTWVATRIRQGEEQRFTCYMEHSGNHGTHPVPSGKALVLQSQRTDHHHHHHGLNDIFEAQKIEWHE
The assay is described as follows: SPR (Carterra); antibody captured by anti-human Fc, monomeric ECD antigen injected.
Procedure: (§1) The dissociation kinetics were monitored for approximately 10 minutes. The chip surface was regenerated between binding cycles with 10 mM glycine HCl, pH 1.7. Binding kinetics were analyzed using software supplied by the manufacturer.

Assay [4] addresses T4, MICA002-ECD-HISAvi (human, UniProt Q29983 24-308).
T4 construct: also called MICA002 polypeptide
T4 chain: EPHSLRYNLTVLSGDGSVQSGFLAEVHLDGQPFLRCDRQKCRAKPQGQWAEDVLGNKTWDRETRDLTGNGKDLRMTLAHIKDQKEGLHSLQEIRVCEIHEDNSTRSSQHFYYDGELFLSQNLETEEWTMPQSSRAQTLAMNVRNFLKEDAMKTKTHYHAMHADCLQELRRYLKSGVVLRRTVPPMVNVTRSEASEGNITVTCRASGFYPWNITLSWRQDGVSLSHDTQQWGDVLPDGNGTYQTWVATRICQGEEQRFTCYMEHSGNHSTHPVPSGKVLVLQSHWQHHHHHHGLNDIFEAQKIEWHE
Described as above.
Procedure: as §1

The target in assay [5] is T5, MICA004-ECD-HISAvi (human).
T5 construct: also called MICA004 polypeptide
T5 chain: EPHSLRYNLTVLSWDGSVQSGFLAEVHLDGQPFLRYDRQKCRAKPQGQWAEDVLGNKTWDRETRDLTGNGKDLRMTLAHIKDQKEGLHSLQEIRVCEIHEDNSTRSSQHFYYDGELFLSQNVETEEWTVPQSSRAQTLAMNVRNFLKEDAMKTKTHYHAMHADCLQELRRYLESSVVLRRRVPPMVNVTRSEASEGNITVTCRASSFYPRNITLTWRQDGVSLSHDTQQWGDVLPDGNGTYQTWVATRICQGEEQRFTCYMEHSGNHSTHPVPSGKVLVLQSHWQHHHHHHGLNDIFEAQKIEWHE
Described as above.
Procedure: as §1

The target in assay [6] is T6, MICA008-ECD-HISAvi (human).
T6 construct: Two sources under one name in the two kinetic assays; also called MICA008 polypeptide
T6 chain: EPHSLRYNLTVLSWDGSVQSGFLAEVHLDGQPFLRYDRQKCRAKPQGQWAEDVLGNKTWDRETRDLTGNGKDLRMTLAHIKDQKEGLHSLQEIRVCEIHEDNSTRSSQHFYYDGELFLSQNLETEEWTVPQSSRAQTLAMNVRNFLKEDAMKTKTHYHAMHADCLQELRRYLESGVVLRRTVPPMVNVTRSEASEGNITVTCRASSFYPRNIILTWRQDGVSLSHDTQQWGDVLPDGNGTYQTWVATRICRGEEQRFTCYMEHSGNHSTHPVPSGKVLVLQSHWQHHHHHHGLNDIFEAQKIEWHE
The description is as above.
Procedure: as §1

Assay [7] deals with T7, human MICB005 on cells (human).
T7 construct: whole, on cells; also called CHO-MICB005; C1R-MICB005
As to the kind of experiment: flow cytometry, CHO-MICB005 cells.

The target of assay [8] is T1, human MICA002 on cells. The assay is described as follows: flow cytometry, CHO-MICA002 cells.

B1: D2M001-001 (antibody, V domains shown)
VH: QVQLVQSGAEVKKPGSSVKVSCKASGYTFSHHSISWVRQAPGQGLEWIGGIYPGKIKTNYAQKFQGRATLTADKSTSTAYMELSSLRSEDTAVYYCATLYGNYEAYWGQGTLVTVSS
VL: DIQMTQSPSSLSASVGDRVTITCRASENIYGALNWYQQKPGKSPKLLIYGTTSLQSGVPSRFSGSGSGRDYTLTISSLQPEDFATYYCQNVLTTPPWTFGGGTKVEIK
notes: only the CDRs are tied to the name in the text; copies: 2 + 2
As for B1, the EC50 in assay [1] was 1.26 µg/mL; in assay [2] it was 7.12 µg/mL; in assay [7], 2.77 µg/mL. The Kd is 158 nM in assay [3], 61.4 nM in assay [4], 156 nM in assay [5] and 255 nM in assay [6].

B2: h36B3GA (antibody, V domains shown)
VH: QVQLVQSGAEVKKPGASVKVSCKASGYAFTKYNFYWVRQAPGQGLEWIGYIDPYFGGTVYNQKFKGKATLTVDKSTSTAYMELRSLRSDDTAVYYCATTDAYSLFTYWGQGTLVTVSS
VL: DIQMTQSPSSLSASVGDRVTITCRASQDISNYLNWYQQTPGKAVKLLIYYTSRLHSGVPSRFSGSGSGTDYTLTISSLQPEDIATYFCLQGNTLPFTFGQGTKLEIK
notes: humanized #36 variant; the text writes h36B3(GA); copies: 2 + 2
For the molecule B2, the “EC50 (read off the curve)” value in assay [8] was about 0.6 µg/mL.
